Experimental data as given in US20260015399A1 (Boehringer Ingelheim, published 2026).
*1 amine or outer side, *2 acyl side, *3 side chain or, on linkers, in order; H or OH if unused. Side-chain parts run from the residue outwards. The star is where a group is joined. C18 diacid = O=C(O)CCCCCCCCCCCCCCCCC(=O)*; γGlu = O=C(O)[C@H](CCC(=O)[*:2])N[*:1]; Isovaleryl = CC(C)CC(=O)*; Ahx = NCCCCCC(=O)O

T1: human NPY2 receptor (human, UniProt P49146 1-381)
T1 sequence (looked up): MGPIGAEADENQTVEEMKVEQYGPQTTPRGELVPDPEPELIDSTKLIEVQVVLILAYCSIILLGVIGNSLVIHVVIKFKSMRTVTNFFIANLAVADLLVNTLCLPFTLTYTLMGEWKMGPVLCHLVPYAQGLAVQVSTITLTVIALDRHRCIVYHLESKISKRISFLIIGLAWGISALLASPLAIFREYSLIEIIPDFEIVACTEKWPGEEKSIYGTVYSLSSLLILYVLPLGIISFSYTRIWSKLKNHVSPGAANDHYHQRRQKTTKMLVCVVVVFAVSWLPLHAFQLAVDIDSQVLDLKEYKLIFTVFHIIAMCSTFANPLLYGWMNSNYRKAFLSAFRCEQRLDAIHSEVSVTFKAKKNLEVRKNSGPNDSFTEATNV

T2: human NPY1 receptor (human, UniProt P25929 1-384)
T2 sequence (looked up): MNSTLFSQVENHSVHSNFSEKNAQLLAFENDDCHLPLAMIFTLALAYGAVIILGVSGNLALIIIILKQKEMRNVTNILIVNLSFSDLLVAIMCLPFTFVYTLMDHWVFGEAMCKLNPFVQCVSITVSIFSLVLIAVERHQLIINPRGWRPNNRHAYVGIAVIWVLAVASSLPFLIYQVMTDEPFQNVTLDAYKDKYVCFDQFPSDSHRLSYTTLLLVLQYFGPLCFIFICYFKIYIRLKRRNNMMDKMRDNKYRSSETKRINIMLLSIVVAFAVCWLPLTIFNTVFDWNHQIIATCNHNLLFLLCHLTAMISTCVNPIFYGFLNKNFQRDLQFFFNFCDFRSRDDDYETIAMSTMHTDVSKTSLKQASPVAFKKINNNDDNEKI

T3: human NPY5 receptor (human, UniProt Q15761 1-445)
T3 sequence (looked up): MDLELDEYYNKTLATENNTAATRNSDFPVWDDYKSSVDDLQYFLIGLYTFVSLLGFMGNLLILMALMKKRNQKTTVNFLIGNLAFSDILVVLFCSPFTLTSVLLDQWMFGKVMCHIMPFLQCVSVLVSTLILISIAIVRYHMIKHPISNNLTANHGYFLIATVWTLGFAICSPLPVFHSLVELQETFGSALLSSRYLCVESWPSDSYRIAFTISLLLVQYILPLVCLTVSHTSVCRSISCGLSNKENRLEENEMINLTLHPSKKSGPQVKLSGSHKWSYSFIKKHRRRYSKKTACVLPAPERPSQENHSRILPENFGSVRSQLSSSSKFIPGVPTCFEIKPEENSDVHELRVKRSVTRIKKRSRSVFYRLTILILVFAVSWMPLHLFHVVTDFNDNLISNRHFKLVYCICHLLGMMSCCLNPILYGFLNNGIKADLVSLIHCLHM

B1: Compound 128 (peptide)
peptide: Isovaleryl-APEK([Ahx-γGlu-C18 diacid])PEEAATPEELQRYYVSLRHYYNWLTRQRY-NH2
SMILES: CC(C)CC(=O)N[C@@H](C)C(=O)N1CCC[C@H]1C(=O)N[C@@H](CCC(=O)O)C(=O)N[C@@H](CCCCNC(=O)CCCCCNC(=O)CC[C@H](NC(=O)CCCCCCCCCCCCCCCCC(=O)O)C(=O)O)C(=O)N1CCC[C@H]1C(=O)N[C@@H](CCC(=O)O)C(=O)N[C@@H](CCC(=O)O)C(=O)N[C@@H](C)C(=O)N[C@@H](C)C(=O)N[C@H](C(=O)N1CCC[C@H]1C(=O)N[C@@H](CCC(=O)O)C(=O)N[C@@H](CCC(=O)O)C(=O)N[C@@H](CC(C)C)C(=O)N[C@@H](CCC(N)=O)C(=O)N[C@@H](CCCNC(=N)N)C(=O)N[C@@H](Cc1ccc(O)cc1)C(=O)N[C@@H](Cc1ccc(O)cc1)C(=O)N[C@H](C(=O)N[C@@H](CO)C(=O)N[C@@H](CC(C)C)C(=O)N[C@@H](CCCNC(=N)N)C(=O)N[C@@H](Cc1c[nH]cn1)C(=O)N[C@@H](Cc1ccc(O)cc1)C(=O)N[C@@H](Cc1ccc(O)cc1)C(=O)N[C@@H](CC(N)=O)C(=O)N[C@@H](Cc1c[nH]c2ccccc12)C(=O)N[C@@H](CC(C)C)C(=O)N[C@H](C(=O)N[C@@H](CCCNC(=N)N)C(=O)N[C@@H](CCC(N)=O)C(=O)N[C@@H](CCCNC(=N)N)C(=O)N[C@@H](Cc1ccc(O)cc1)C(N)=O)[C@@H](C)O)C(C)C)[C@@H](C)O
B2: Compound 136 (peptide)
peptide: Isovaleryl-APEK([Ahx-γGlu-C18 diacid])PEADATPEELQRYYVALRHYYNWLTRQRY-NH2
SMILES: CC(C)CC(=O)N[C@@H](C)C(=O)N1CCC[C@H]1C(=O)N[C@@H](CCC(=O)O)C(=O)N[C@@H](CCCCNC(=O)CCCCCNC(=O)CC[C@H](NC(=O)CCCCCCCCCCCCCCCCC(=O)O)C(=O)O)C(=O)N1CCC[C@H]1C(=O)N[C@@H](CCC(=O)O)C(=O)N[C@@H](C)C(=O)N[C@@H](CC(=O)O)C(=O)N[C@@H](C)C(=O)N[C@H](C(=O)N1CCC[C@H]1C(=O)N[C@@H](CCC(=O)O)C(=O)N[C@@H](CCC(=O)O)C(=O)N[C@@H](CC(C)C)C(=O)N[C@@H](CCC(N)=O)C(=O)N[C@@H](CCCNC(=N)N)C(=O)N[C@@H](Cc1ccc(O)cc1)C(=O)N[C@@H](Cc1ccc(O)cc1)C(=O)N[C@H](C(=O)N[C@@H](C)C(=O)N[C@@H](CC(C)C)C(=O)N[C@@H](CCCNC(=N)N)C(=O)N[C@@H](Cc1c[nH]cn1)C(=O)N[C@@H](Cc1ccc(O)cc1)C(=O)N[C@@H](Cc1ccc(O)cc1)C(=O)N[C@@H](CC(N)=O)C(=O)N[C@@H](Cc1c[nH]c2ccccc12)C(=O)N[C@@H](CC(C)C)C(=O)N[C@H](C(=O)N[C@@H](CCCNC(=N)N)C(=O)N[C@@H](CCC(N)=O)C(=O)N[C@@H](CCCNC(=N)N)C(=O)N[C@@H](Cc1ccc(O)cc1)C(N)=O)[C@@H](C)O)C(C)C)[C@@H](C)O
B3: Compound 150 (peptide)
peptide: Isovaleryl-APEK([Ahx-γGlu-C18 diacid])PEEAASPEEIQRYYVSLRHYYNWLTRQRY-NH2
SMILES: CC[C@H](C)[C@H](NC(=O)[C@H](CCC(=O)O)NC(=O)[C@H](CCC(=O)O)NC(=O)[C@@H]1CCCN1C(=O)[C@H](CO)NC(=O)[C@H](C)NC(=O)[C@H](C)NC(=O)[C@H](CCC(=O)O)NC(=O)[C@H](CCC(=O)O)NC(=O)[C@@H]1CCCN1C(=O)[C@H](CCCCNC(=O)CCCCCNC(=O)CC[C@H](NC(=O)CCCCCCCCCCCCCCCCC(=O)O)C(=O)O)NC(=O)[C@H](CCC(=O)O)NC(=O)[C@@H]1CCCN1C(=O)[C@H](C)NC(=O)CC(C)C)C(=O)N[C@@H](CCC(N)=O)C(=O)N[C@@H](CCCNC(=N)N)C(=O)N[C@@H](Cc1ccc(O)cc1)C(=O)N[C@@H](Cc1ccc(O)cc1)C(=O)N[C@H](C(=O)N[C@@H](CO)C(=O)N[C@@H](CC(C)C)C(=O)N[C@@H](CCCNC(=N)N)C(=O)N[C@@H](Cc1c[nH]cn1)C(=O)N[C@@H](Cc1ccc(O)cc1)C(=O)N[C@@H](Cc1ccc(O)cc1)C(=O)N[C@@H](CC(N)=O)C(=O)N[C@@H](Cc1c[nH]c2ccccc12)C(=O)N[C@@H](CC(C)C)C(=O)N[C@H](C(=O)N[C@@H](CCCNC(=N)N)C(=O)N[C@@H](CCC(N)=O)C(=O)N[C@@H](CCCNC(=N)N)C(=O)N[C@@H](Cc1ccc(O)cc1)C(N)=O)[C@@H](C)O)C(C)C
B4: Compound 184 (peptide)
peptide: Isovaleryl-APEK([Ahx-γGlu-C18 diacid])PEADATPEEIQRYYVALRHYYNWLTRQRY-NH2
SMILES: CC[C@H](C)[C@H](NC(=O)[C@H](CCC(=O)O)NC(=O)[C@H](CCC(=O)O)NC(=O)[C@@H]1CCCN1C(=O)[C@@H](NC(=O)[C@H](C)NC(=O)[C@H](CC(=O)O)NC(=O)[C@H](C)NC(=O)[C@H](CCC(=O)O)NC(=O)[C@@H]1CCCN1C(=O)[C@H](CCCCNC(=O)CCCCCNC(=O)CC[C@H](NC(=O)CCCCCCCCCCCCCCCCC(=O)O)C(=O)O)NC(=O)[C@H](CCC(=O)O)NC(=O)[C@@H]1CCCN1C(=O)[C@H](C)NC(=O)CC(C)C)[C@@H](C)O)C(=O)N[C@@H](CCC(N)=O)C(=O)N[C@@H](CCCNC(=N)N)C(=O)N[C@@H](Cc1ccc(O)cc1)C(=O)N[C@@H](Cc1ccc(O)cc1)C(=O)N[C@H](C(=O)N[C@@H](C)C(=O)N[C@@H](CC(C)C)C(=O)N[C@@H](CCCNC(=N)N)C(=O)N[C@@H](Cc1c[nH]cn1)C(=O)N[C@@H](Cc1ccc(O)cc1)C(=O)N[C@@H](Cc1ccc(O)cc1)C(=O)N[C@@H](CC(N)=O)C(=O)N[C@@H](Cc1c[nH]c2ccccc12)C(=O)N[C@@H](CC(C)C)C(=O)N[C@H](C(=O)N[C@@H](CCCNC(=N)N)C(=O)N[C@@H](CCC(N)=O)C(=O)N[C@@H](CCCNC(=N)N)C(=O)N[C@@H](Cc1ccc(O)cc1)C(N)=O)[C@@H](C)O)C(C)C

How the values were obtained:
human NPY2 receptor [1] = target: T1, human NPY2 receptor; experiment: cell-based or functional assay
human NPY1 receptor = target: T2, human NPY1 receptor; experiment: cell-based or functional assay
human NPY4 receptor = human NPY4 receptor (human, UniProt P50391 1-375); experiment: cell-based or functional assay
human NPY5 receptor = target: T3, human NPY5 receptor; experiment: cell-based or functional assay
human NPY2 receptor [2] = target: T1, human NPY2 receptor; experiment: RLB: displacement of 125I-PYY(1-36) from hNPY2R membranes

Sequence of human NPY4 receptor (P50391 whole entry): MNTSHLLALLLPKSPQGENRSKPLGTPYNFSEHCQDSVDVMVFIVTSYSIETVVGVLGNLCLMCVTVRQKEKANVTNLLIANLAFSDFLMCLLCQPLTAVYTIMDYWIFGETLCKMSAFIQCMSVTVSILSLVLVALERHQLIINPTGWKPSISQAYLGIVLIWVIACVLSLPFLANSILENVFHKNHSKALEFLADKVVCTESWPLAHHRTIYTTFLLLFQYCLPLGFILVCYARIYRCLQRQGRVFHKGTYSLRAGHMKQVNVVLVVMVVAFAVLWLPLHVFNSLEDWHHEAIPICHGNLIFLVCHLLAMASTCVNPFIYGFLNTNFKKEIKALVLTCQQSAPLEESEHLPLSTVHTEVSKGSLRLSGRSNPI

| Binder | EC50, HTRF cAMP Gi assay (human NPY2 receptor [1]) [nM] | EC50, HTRF cAMP Gi assay (human NPY1 receptor) [nM] | EC50, HTRF cAMP Gi assay (human NPY4 receptor) [nM] | EC50, HTRF cAMP Gi assay (human NPY5 receptor) [nM] | Ki (human NPY2 receptor [2]) [nM] |
| --- | --- | --- | --- | --- | --- |
| B1 | 0.344 | > 5000 | > 5000 | > 5000 | 2.91 |
| B2 | 0.138 | > 5000 | > 5000 | > 5000 | 1.07 |
| B3 | 0.243 | > 5000 | > 5000 | > 5000 | 2.18 |
| B4 | 0.232 | > 5000 | > 5000 | > 5000 | 0.64 |
